{
  "source": "the RNAGym collection of RNA variant scans (doi:10.7554/elife.80360)",
  "parents": {"B1": {"name": "HDV Ribozyme (parent)", "chain": "GGCCGGCAUGGUCCCAGCCUCCUCGCUGGCGCCGGCUGGGCAACAUUCCGAGGGGACCGUCCCCUCGGUAAUGGCGAAUGGGACCCA"}},
  "data": [
    {"variants_of": "B1", "assay": "self-cleavage, relative activity (ratio to wild type); higher = more cleavage; co-transcriptional", "values": [
      {"variant": "GGCCGGCAUGGUCCCAGCCUCCUCGCUGGCGCCGGCUGGGCAACAUUCCGAGGGGACCGUCCCCCCGGCAAUGGCGAAUGGGACCCA", "note": "[U65C U69C]", "self-cleavage": 1.02},
      {"variant": "GGCCGGCAUGGUCCCAGCCUCCUCGCUGGCGCCGGCUGGGCAACAUUCCGAGGGGACCGUCCCCACGGUAAUGGCGAAUGGUACCCA", "note": "[U65A G82U]", "self-cleavage": 0.217},
      {"variant": "GGCCGGCAUGGUCCCAGCCUCCUCGCUGGCGCCGGCUGGGCAACAUUCCGAGGGGACCGUCCCCCCGGUAAUGGCGAAUAGGACCCA", "note": "[U65C G80A]", "self-cleavage": 0.356},
      {"variant": "GGCCGGCAUGGUCCCAGCCUCCUCGCUGGCGCCGGCUGGGCAACAUUCCGAGGGGACCGUCCCCACGGUAAUGGCGAACGGGACCCA", "note": "[U65A U79C]", "self-cleavage": 0.467},
      {"variant": "GGCCGGCAUGGUCCCAGCCUCCUCGCUGGCGCCGGCUGGGCAACAUUCCGAGGGGACCGUCCCCACGGUAAUGGCGAAGGGGACCCA", "note": "[U65A U79G]", "self-cleavage": 0.492},
      {"variant": "GGCCGGCAUGGUCCCAGCCUCCUCGCUGGCGCCGGCUGGGCAACAUUCCGAGGGGACCGUCCCCGCGGUAAUGGCGAAUGAGACCCA", "note": "[U65G G81A]", "self-cleavage": 0.282},
      {"variant": "GGCCGGCAUGGUCCCAGCCUCCUCGCUGGCGCCGGCUGGGCAACAUUCCGAGGGGACCGUCCCCUAGGUAAUGGCGAAUGGGAGCCA", "note": "[C66A C84G]", "self-cleavage": 0.692},
      {"variant": "GGCCGGCAUGGUCCCAGCCUCCUCGCUGGCGCCGGCUGGGCAACAUUCCGAGGGGACCGUCCCCCCGGUAAUGCCGAAUGGGACCCA", "note": "[U65C G74C]", "self-cleavage": 0.204},
      {"variant": "GGCCGGCAUGGUCCCAGCCUCCUCGCUGGCGCCGGCUGGGCAACAUUCCGAGGGGACCGUCCCCGAGGUAAUGGCGAAUGGGACCCA", "note": "[U65G C66A]", "self-cleavage": 0.9},
      {"variant": "GGCCGGCAUGGUCCCAGCCUCCUCGCUGGCGCCGGCUGGGCAACAUUCCGAGGGGACCGUCCCCACGGUAAUGGCGAAUGGGACCGA", "note": "[U65A C86G]", "self-cleavage": 1.12},
      {"variant": "GGCCGGCAUGGUCCCAGCCUCCUCGCUGGCGCCGGCUGGGCAACAUUCCGAGGGGACCGUCCCCCCGGUAAAGGCGAAUGGGACCCA", "note": "[U65C U72A]", "self-cleavage": 0.665},
      {"variant": "GGCCGGCAUGGUCCCAGCCUCCUCGCUGGCGCCGGCUGGGCAACAUUCCGAGGGGACCGUCCCCCCGGUAACGGCGAAUGGGACCCA", "note": "[U65C U72C]", "self-cleavage": 0.609},
      {"variant": "GGCCGGCAUGGUCCCAGCCUCCUCGCUGGCGCCGGCUGGGCAACAUUCCGAGGGGACCGUCCCCACGGUAAUGGCGAAUGGGAUCCA", "note": "[U65A C84U]", "self-cleavage": 0.799},
      {"variant": "GGCCGGCAUGGUCCCAGCCUCCUCGCUGGCGCCGGCUGGGCAACAUUCCGAGGGGACCGUCCCCUAAGUAAUGGCGAAUGGGACCCA", "note": "[C66A G67A]", "self-cleavage": 0.864},
      {"variant": "GGCCGGCAUGGUCCCAGCCUCCUCGCUGGCGCCGGCUGGGCAACAUUCCGAGGGGACCGUCCCCUAGGUAAUGGCGAAUGGGACCGA", "note": "[C66A C86G]", "self-cleavage": 1.12},
      {"variant": "GGCCGGCAUGGUCCCAGCCUCCUCGCUGGCGCCGGCUGGGCAACAUUCCGAGGGGACCGUCCCCGCGGUAAUGGCGGAUGGGACCCA", "note": "[U65G A77G]", "self-cleavage": 0.831},
      {"variant": "GGCCGGCAUGGUCCCAGCCUCCUCGCUGGCGCCGGCUGGGCAACAUUCCGAGGGGACCGUCCCCUAGGUAAUGGCAAAUGGGACCCA", "note": "[C66A G76A]", "self-cleavage": 1.13},
      {"variant": "GGCCGGCAUGGUCCCAGCCUCCUCGCUGGCGCCGGCUGGGCAACAUUCCGAGGGGACCGUCCCCUAGGUAAUGGCGAAUCGGACCCA", "note": "[C66A G80C]", "self-cleavage": 0.0845},
      {"variant": "GGCCGGCAUGGUCCCAGCCUCCUCGCUGGCGCCGGCUGGGCAACAUUCCGAGGGGACCGUCCCCUAGGUAAUGGCGACUGGGACCCA", "note": "[C66A A78C]", "self-cleavage": 0.142},
      {"variant": "GGCCGGCAUGGUCCCAGCCUCCUCGCUGGCGCCGGCUGGGCAACAUUCCGAGGGGACCGUCCCCUAGGUAAUGGCGAAUGGGACUCA", "note": "[C66A C85U]", "self-cleavage": 0.985},
      {"variant": "GGCCGGCAUGGUCCCAGCCUCCUCGCUGGCGCCGGCUGGGCAACAUUCCGAGGGGACCGUCCCCUAGGUAAUGGCGCAUGGGACCCA", "note": "[C66A A77C]", "self-cleavage": 0.237},
      {"variant": "GGCCGGCAUGGUCCCAGCCUCCUCGCUGGCGCCGGCUGGGCAACAUUCCGAGGGGACCGUCCCCGCGGUAAUGACGAAUGGGACCCA", "note": "[U65G G74A]", "self-cleavage": 0.3},
      {"variant": "GGCCGGCAUGGUCCCAGCCUCCUCGCUGGCGCCGGCUGGGCAACAUUCCGAGGGGACCGUCCCCUAGGUAAUGGAGAAUGGGACCCA", "note": "[C66A C75A]", "self-cleavage": 0.248},
      {"variant": "GGCCGGCAUGGUCCCAGCCUCCUCGCUGGCGCCGGCUGGGCAACAUUCCGAGGGGACCGUCCCCUAGGUAAUGGCGAAUGGGACCCU", "note": "[C66A A87U]", "self-cleavage": 0.994},
      {"variant": "GGCCGGCAUGGUCCCAGCCUCCUCGCUGGCGCCGGCUGGGCAACAUUCCGAGGGGACCGUCCCCACGGUAAUGGCGUAUGGGACCCA", "note": "[U65A A77U]", "self-cleavage": 0.72},
      {"variant": "GGCCGGCAUGGUCCCAGCCUCCUCGCUGGCGCCGGCUGGGCAACAUUCCGAGGGGACCGUCCCCCCGGUAAUGGCGAGUGGGACCCA", "note": "[U65C A78G]", "self-cleavage": 0.731},
      {"variant": "GGCCGGCAUGGUCCCAGCCUCCUCGCUGGCGCCGGCUGGGCAACAUUCCGAGGGGACCGUCCCCGCGGUAAUGGCGAAUGGGUCCCA", "note": "[U65G A83U]", "self-cleavage": 0.571},
      {"variant": "GGCCGGCAUGGUCCCAGCCUCCUCGCUGGCGCCGGCUGGGCAACAUUCCGAGGGGACCGUCCCCACGGUAAUGGCGAGUGGGACCCA", "note": "[U65A A78G]", "self-cleavage": 0.831},
      {"variant": "GGCCGGCAUGGUCCCAGCCUCCUCGCUGGCGCCGGCUGGGCAACAUUCCGAGGGGACCGUCCCCCCGUUAAUGGCGAAUGGGACCCA", "note": "[U65C G68U]", "self-cleavage": 0.831},
      {"variant": "GGCCGGCAUGGUCCCAGCCUCCUCGCUGGCGCCGGCUGGGCAACAUUCCGAGGGGACCGUCCCCCUGGUAAUGGCGAAUGGGACCCA", "note": "[U65C C66U]", "self-cleavage": 1.04},
      {"variant": "GGCCGGCAUGGUCCCAGCCUCCUCGCUGGCGCCGGCUGGGCAACAUUCCGAGGGGACCGUCCCCGCGGUAAUAGCGAAUGGGACCCA", "note": "[U65G G73A]", "self-cleavage": 0.363},
      {"variant": "GGCCGGCAUGGUCCCAGCCUCCUCGCUGGCGCCGGCUGGGCAACAUUCCGAGGGGACCGUCCCCACGGUCAUGGCGAAUGGGACCCA", "note": "[U65A A70C]", "self-cleavage": 0.643}
    ]}
  ]
}
